From PMC12141489 (Scientific Reports, 2025)
Where no end group is shown, it is not given here. The star is where a group is joined. Biotin = O=C1N[C@H]2[C@H](CS[C@H]2CCCCC(=O)*)N1

B1: Ab1 (chimeric antibody) (antibody, V domains shown)
VH: QVQLQESGPGLVKPSQSLSLTCTVTGYSITSDYAWNWIRQFPGNKLQWMGYLSYSGVTSYNPSLKGRISITRDTSKNQFFLQLSSVTPEDTATYYCARKGTYYRYEGSYWYFDVWGAGTTVTVSS
VL: DIQMNQSPSSLSASLGDTITITCHANQNIDVWLSWYQQKPGNVPKLLIYKTSNLHTGVPSRFSGSGSGTDFTLTISSLQPEDIATYYCQQGQSYPLTFGGGTKLEIK

How the values were obtained:
[1] = biological target: myc-tagged human TRPM4 on HEK 293 cells (Homo sapiens, UniProt Q8TD43); test: immunostaining of cells or tissue
Chain of myc-tagged human TRPM4 on HEK 293 cells (Q8TD43 whole entry): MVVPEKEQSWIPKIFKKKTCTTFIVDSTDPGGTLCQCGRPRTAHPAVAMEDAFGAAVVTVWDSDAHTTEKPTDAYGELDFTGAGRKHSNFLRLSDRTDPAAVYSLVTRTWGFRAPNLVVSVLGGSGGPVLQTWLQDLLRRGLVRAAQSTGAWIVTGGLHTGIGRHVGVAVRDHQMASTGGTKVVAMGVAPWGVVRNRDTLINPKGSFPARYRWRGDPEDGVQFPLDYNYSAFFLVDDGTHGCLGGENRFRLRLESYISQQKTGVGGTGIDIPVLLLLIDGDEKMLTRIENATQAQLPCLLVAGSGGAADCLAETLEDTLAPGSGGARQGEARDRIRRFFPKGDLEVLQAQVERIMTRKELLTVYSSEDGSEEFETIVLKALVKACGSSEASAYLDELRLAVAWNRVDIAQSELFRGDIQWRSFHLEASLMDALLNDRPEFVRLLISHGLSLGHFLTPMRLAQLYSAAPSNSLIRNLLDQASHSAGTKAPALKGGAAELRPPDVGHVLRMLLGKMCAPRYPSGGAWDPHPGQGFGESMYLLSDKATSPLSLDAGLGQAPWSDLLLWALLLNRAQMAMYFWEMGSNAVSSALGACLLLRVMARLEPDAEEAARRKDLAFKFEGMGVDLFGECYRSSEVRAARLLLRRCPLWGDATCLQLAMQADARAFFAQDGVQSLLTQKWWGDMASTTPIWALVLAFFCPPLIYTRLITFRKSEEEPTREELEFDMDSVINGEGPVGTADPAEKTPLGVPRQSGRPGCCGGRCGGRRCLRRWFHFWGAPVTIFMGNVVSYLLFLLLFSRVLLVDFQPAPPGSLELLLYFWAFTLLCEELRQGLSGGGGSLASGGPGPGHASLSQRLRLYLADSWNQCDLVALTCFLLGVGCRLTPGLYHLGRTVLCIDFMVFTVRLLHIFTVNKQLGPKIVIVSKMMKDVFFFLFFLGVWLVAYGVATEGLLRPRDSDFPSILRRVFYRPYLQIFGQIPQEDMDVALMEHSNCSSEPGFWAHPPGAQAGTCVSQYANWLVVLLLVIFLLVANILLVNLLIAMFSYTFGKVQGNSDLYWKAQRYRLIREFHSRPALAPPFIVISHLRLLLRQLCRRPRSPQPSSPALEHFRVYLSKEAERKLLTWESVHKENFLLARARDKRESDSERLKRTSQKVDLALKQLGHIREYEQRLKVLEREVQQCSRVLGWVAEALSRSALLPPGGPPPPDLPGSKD

[2] = biological target: Ab2 (humanized antibody) (human); test: SPR
[3] = biological target: Ab4 (humanized antibody) (human); test: SPR

Binder | binding result [1] | koff [2] [s⁻¹] | Kd [3] [nM]
B1 | binds | – | –
RDSDSNCSSEPGFWAHPPGAQK(Biotin) [Peptide-biotin (…{Lys(biotin)})] | – | 0.00166 | 7
